Source: patent US20240262912A1 (MERUS N V, published 2024)

What was measured:
[1] = target: T1, Human CLEC12A on cells (HL60, CLEC12A-CHO-K1, primary blood, bone marrow and AML cells) (human, UniProt Q5QGZ9 1-265); assay: cell-based or functional assay
T1 sequence: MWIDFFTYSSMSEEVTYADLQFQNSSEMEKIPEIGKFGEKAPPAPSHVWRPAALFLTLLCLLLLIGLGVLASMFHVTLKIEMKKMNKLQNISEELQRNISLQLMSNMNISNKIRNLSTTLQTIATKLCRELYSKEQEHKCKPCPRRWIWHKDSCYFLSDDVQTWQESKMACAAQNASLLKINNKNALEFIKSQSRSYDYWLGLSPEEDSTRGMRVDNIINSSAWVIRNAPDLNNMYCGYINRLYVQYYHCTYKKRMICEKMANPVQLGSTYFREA

[2] = target: T1, Human CLEC12A on cells (HL60, …); assay: cell-based or functional assay; remark: listed apart in the source
[3] = target: T1, Human CLEC12A on cells (HL60, …); assay: cell-based or functional assay; remark: listed apart in the source
[4] = target: T2, Recombinant purified CLEC12A-His (Sino Biologicals) (human, UniProt Q5QGZ9 65-265); assay: SPR (Biacore T100); antibody captured on CM5 chip through mouse anti-human IgG, recombinant CLEC12A-His run over the surface
T2 construct: Bought protein; 11896-H07H; not shown: His tag
T2 sequence: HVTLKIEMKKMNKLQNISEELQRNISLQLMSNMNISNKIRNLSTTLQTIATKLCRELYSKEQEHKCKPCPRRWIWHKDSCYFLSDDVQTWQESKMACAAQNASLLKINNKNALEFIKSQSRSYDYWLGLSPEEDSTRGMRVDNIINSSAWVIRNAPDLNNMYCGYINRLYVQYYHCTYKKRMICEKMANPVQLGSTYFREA

- median fold T cell expansion in primary AML samples, day 10 [1]: 48 fold
- HL60 cell lysis, mean EC50 [2]: 0.0682 µg/mL
- fold T cell expansion, primary AML sample of patient 10, day 10 [3]: 25 fold
- fold T cell expansion, primary AML sample of patient 11, day 10 [3]: 6 fold
- fold T cell expansion, primary AML sample of patient 12, day 10 [3]: 37 fold
- fold T cell expansion, primary AML sample of patient 13, day 10 [3]: 139 fold
- fold T cell expansion, primary AML sample of patient 14, day 10 (1,000 ng/mL) [3]: 64 fold
- fold T cell expansion, primary AML sample of patient 15, day 10 (1,000 ng/mL) [3]: 25 fold
- fold T cell expansion, primary AML sample of patient 16, day 10 [3]: 15 fold
- fold T cell expansion, primary AML sample of patient 17, day 10 [3]: 98 fold
- fold T cell expansion, primary AML sample of patient 18, day 10 [3]: 20 fold
- fold T cell expansion, primary AML sample of patient 19, day 10 [3]: 60 fold
- fold T cell expansion, primary AML sample of patient 20, day 10 (1,000 ng/mL) [3]: 157 fold
- Kd [4]: 3 nM
B1: Antibody MF4327×MF5196, full length human IgG1 CLEC12AxCD3 bispecific antibody with silenced Fc effector function (bispecific antibody, V domains shown)
VH 1: QVQLVQSGAEVKKPGASVKVSCKASGYTFTSYYMHWVRQAPGQGLEWMGIINPSGGSTSYAQKFQGRVTMTRDTSTSTVYMELSSLRSEDTAVYYCAKGTTGDWFDYWGQGTLVTVSS
VH 2: QVQLVQSGGGVVQPGRSLRLSCVASGFTFSSYGMHWVRQAPGKGLEWVAAIWYNARKQDYADSVKGRFTISRDNSKNTLYLQMNSLRAEDTAVYYCTRGTGYNWFDPWGQGTLVTVSS
VL: not shown
notes: Full length human IgG1 with a common light chain; The CH3 domains are engineered for heterodimerisation, and changes in the CH2 regions remove Fc effector function; also called CLEC12AxCD3 bispecific IgG; Fcγ receptor-silenced antibody MF4327×MF5196
- CD25 on CD4 T cells, mean EC50 (HL60 cytotoxicity assay) [2]: 0.351 µg/mL
- CD25 on CD8 T cells, mean EC50 (HL60 cytotoxicity assay) [2]: 0.0957 µg/mL
- CD69 on CD4 T cells, mean EC50 (HL60 cytotoxicity assay) [2]: 0.156 µg/mL
- CD69 on CD8 T cells, mean EC50 (HL60 cytotoxicity assay) [2]: 0.0444 µg/mL
